Experimental data published in EP4574169A1.
Read-outs that look alike come from different tables or passages of the source.

Experiments:
[1] = biological target: ACE2; experiment: ratio of ACE2 binding ELISA to Spike RBD detection ELISA; concentrated supernatant of virus-infected Vero cells
[2] = biological target: ACE2; experiment: ACE2 binding detection ELISA (ACE2 on solid phase, detection with anti-spikeRBD antibody); concentrated supernatant of virus-infected Vero cells
[3] = biological target: ACE2

Row | Substance | ACE2 bind/ Spike RBD [1] | ACE2 bind [2] [ng/mL] | ACE2 bind [3] [ng/mL] | ACE2 bind/ Spike RBD [3]
1 | Cov2SPPF (polypeptide B: structure of A with further deletion of the furin cleavage site, R683A R685 (from UniProt P0DTC2 14-1273) | 0.094 | 0.5 | 7 | 0.076
2 | Cov2STH (polypeptide C: mu-phosphatase leader, extracellular region (ECD) of the spike protein, PP m (from UniProt P0DTC2 16-1213) | 6.5 | 19.8 | 202 | 2.3
